The target in experiment [1] is N-terminally thioredoxin (Trx)-tagged Ct domain of CaeA2 (Actinoalloteichus cyanogriseus) (UniProt M1F4W8). The experiment is described as follows: ITC.
Experiment [2] concerns the target T1, N-terminally thioredoxin (Trx)-tagged Ct domain of CaeA2 (Actinoalloteichus cyanogriseus, UniProt M1F4W8 2080-2484).
T1 sequence (looked up): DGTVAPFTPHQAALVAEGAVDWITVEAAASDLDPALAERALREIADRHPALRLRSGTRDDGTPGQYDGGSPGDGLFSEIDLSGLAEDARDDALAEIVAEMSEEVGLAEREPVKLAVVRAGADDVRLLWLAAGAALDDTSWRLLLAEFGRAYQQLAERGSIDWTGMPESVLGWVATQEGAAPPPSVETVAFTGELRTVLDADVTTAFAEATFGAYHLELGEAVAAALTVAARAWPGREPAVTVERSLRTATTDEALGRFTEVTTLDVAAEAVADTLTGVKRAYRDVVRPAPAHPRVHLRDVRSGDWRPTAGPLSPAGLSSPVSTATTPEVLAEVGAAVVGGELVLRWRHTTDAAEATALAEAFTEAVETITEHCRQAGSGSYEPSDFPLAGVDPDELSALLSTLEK
As to the kind of experiment: ITC.

This note sets out measurements from paper doi:10.1101/2020.12.07.415471 (bioRxiv, 2020).

Take ColB1 (enzyme): the Kd (commonly the concentration at which binding is half-saturated) in experiment [1] was found to be 1180 nM.

B1: MBP-fused CaeB1 variant (enzyme)
chain: MTTGNGAAPPPLTRLSPEDEAWRAHVRAFAEEHIAPLSDRMDRDATLDPGLREKLFSAGLMAVEAPARYGGRGGSLFQVVLTIEEVARVDPGVAVGVDVHNALVVATLLRQGTGDQKRRRLPLLATRQVGAFALSEENAGSDAFAGTTTAVPTSDGGYRINGRKRWTSNAGQADVFLVFARTEGHGSSAFLVDRTAEGLSIDPRTEQMGVRAAATADVVLTDVRVRRQDCVGGPGGGEGVAIGALDIGRIGIAAQMVGLAQGALDEAVAYSRTREQFGQPIGSYQGVRFTLADIATEVAAARALLYDVTRTVAAGTDIAERLRLTAMAKYFASQVAERAASRALEVLGGNGFTREYPLERFYRDVKAGKIYEGTSNMLLRSIAGSL
Regarding B1, the Kd in experiment [2] amounted to 530 ± 120 nM.
